# The supplement of paper PMC9170038
# System: K4 kissing-loop RNA reporter
# Experiment: apparent KD of K4 kissing-loop reporter; higher = weaker reporter binding
# Settings: Eterna round: R107
# Experimental: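 RNA-MaP round R107: designed RNA switches with theophylline, tryptophan, arginine or FMN aptamers are transcribed on-chip within common flanks. They are titrated with a labelled K4 kissing-loop RNA reporter in RNA-MaP buffer (100 mM Tris pH 7.5, 80 mM KCl, 4 mM MgCl2), without ligand or with the indicated ligand. Median apparent KD per design.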
# [1] = input ligand: theophylline 20 uM
# [2] = input ligand: tryptophan 2.4 mM
# 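Further: bound reporter read as fluorescence of individual clusters on recovered sequencing chips by microscopy, with normalized cluster intensities fitted with a binding model.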
Sequence,apparent KD of K4 kissing-loop reporter (input ligand: FMN 200 uM) [nM],apparent KD of K4 kissing-loop reporter (input ligand: arginine 13.2 mM) [nM],apparent KD of K4 kissing-loop reporter (input ligand: none) [nM],apparent KD of K4 kissing-loop reporter [1] [nM],apparent KD of K4 kissing-loop reporter [2] [nM]
ACGCUGGUGAAUAACACUAGCGAAUAAUUCCGAGGACCGGUACGGCCGCCACUCGGCUAACUGCGAGUGAUGUUCGAUAAUAAAA [Mat - Mod of OpenEnded 3 - D10],78.5,158,103,156,57.5
ACGUAGUUCUAGGAUACCAGCCAAGAUGCCAGGACAAAAGUCCUGGCAGCCAGUGAUGUUGGCCCUUGGCAGCCUAGAACUACGA [Omei KL Theo B Exc B v9],149,115,132,121,120
ACGUCUCGUUAAAUCGUGGUUUCGAUCGAUACCAGUAGCGAGAGUUACCCUUGGCAGCGAAAUGAGUGAUGUUCAUGAAAGAAGA [KL-XTheoA9],65.2,109,69.4,130,57.3
ACUACGAAGACGGCCGCCACUGAUAUUCGUAGAUCCAUCAUUACAUGAGUGAUGUUCAUGUAUAUCAGGACCGGGUCAAGAUGGU [KL-XTryp-B17 #analogue],184,146,164,162,226
ACUGGGUUGACGAAAGUCAACAAAAGAGAAGGAGCGCACGAAAGUGCAGGUAGGUCGCUCAUCCAGUGAUGUUGGAUCAUCCAGA [#SwitchBubble 17 #K4Late],444,679,626,392,305
AGAACUGUCUUGGAUACCAGUGAUGUUGGUAUCGAUGUGUGAGUGCAAAGCGUCCCACAUCGCCCUUGGCAGCUAAGACAGUUCA [Omei KL Theo B Exc A v5],331,292,341,375,292
AGAAGAUAUCAAGAUACCAGCUCCCGGCCCAAAACCCAGAUACACGAGUGAUGUUCGUUCAGCCCUUGGCAGCUUGCCUAGUUCU [theeternabot_sameState_KL_Theo_B_6],94.4,149,125,163,89.4
AGACCACAAAGUGGUCAGUGUUCGCUCCGGCGAGGACCGGUACGGCCGCCACUCGCGAGUGAUGUUCGCGAGCGGAGCGAACACA [Omei KL Tryp A Exc A v2],101,86.6,99.9,88.9,95.1
AGACUACCACACUGUCAAUAGACAGUGUACUAGGAUAUGCUGAUAAGCAGAAGGAGUGAUGUUCCCAGGUAGUCAAUAAAAUAAU [FmnAX 13 U28+C66],274,189,243,270,225
AGAUCUGUAACAGAUACCAGAGGACGAUGAUCGAACAGUGAUGUUAUCUGUUAGUCGUCGCUCCCUUGGCAGCUGUUACAGAUCA [Omei KL Theo B SS B v4],106,46.2,55.5,72.1,84.9
AGAUUCGACACGGCCGCCACUUGUGGUGGAUUAUCCUAUGUCGAACAUGAGUGAUGUUCAUGUACAAGGACCGGGUGUUGAGUCU [KL-XTryp-B6 #analogue],476,373,421,438,492
AGCGAUGUUUUCUCUAAGAGUGAUGUUUUUCGAGGACCGGUACGGCCGCCACUCGAAUAAAGUGUGUGGUAGUGAGCUGUUGACA [#17 K4 Tryptophan A Exclusion],1150,606,1110,648,804
AGCUCAGAGUGACUCGAUAAGAGUCACAAACGAGGACCGGUACGGCCGCCACUCGAAACAAAGAGAGUGAUGUUCUCGCUGAGCA [FiskerMod 10 - Jieux - Same State Tryptophan A],319,121,176,207,713
AGGACUCUUGUGGGUACGCAUCUAGCCGAUACCAGACUUCCAUAUGUCCCUUGGCAGCGGCAGUGAUGUUGUCGUUACGCCAUCA [theeternabot_exclusion_KL_Theo_A_34],140,133,147,212,131
AGGAGCGUGCGAUGUAAAUCGCACGCUCCACGAGGACCGGUACGGCCGCCACUCGCUCGUGCAGAGUGAUGUUCUGCCGGCGAAU [#2 Same State - Tryptophan A Attempt #24 (HarryS)],306,202,270,248,260
AGGAUCCGUCGACAAAAGUCGACAUAAACCAAGGAUAUGACGAAAGUCAGAAGGUGGUCAUAAGACCAGUGAUGUUGGUGGAUCC [FmnA 11 #SwitchBubble #K4Late],984,268,467,309,379
AGGCACGAGCAAGGAUAUUGAGUAGAGUGAUGUUCUGCCUAAGUUGGCUCGUAAGAGCCUUCUUAGCGAGAAGGUGCUCGUGCCU [#2 Same State - FMN A Attempt #27 (HarryS)],297,513,824,611,665
AGGCGACGCAAAGGAUAUCACGGUUUUCUAGUGAUGUUAGUCAAGACCGACCGAGAAAUCAGUGUUUGAGAAGGUUGAACGUCGC [theeternabot_sameState_KL_FMN_B_46],496,682,1870,756,970
AGGGACUCUUCGGAGUCCCGGUUAAGGGAUACCAGUGAUGUUGGUCACCCUUGGCAGCCCAGAAACCAAGCCACCAAAGGUGGCA [Omei KL Theo A Exc A v2],150,127,133,211,121
AGGUAUGUCUGAAGGAGCGACUAAGAAGCAGUGAUGUUGCUAAGUAGUAAGUAGCUACGUAGUCAGGUAGGUCGCAGAUAUACCU [Arg B SS t14],322,348,257,349,189
AGGUUUUGAUUAGGAUAUGCACUGACGACGAGAAUAUAGUGAUGUUAUAUAAUAGGAAUUAGUAGAGUAGAAGGGAUUGAGGUUU [SSFMNB.W],261,168,277,342,190

Sequence,apparent KD of K4 kissing-loop reporter (input ligand: FMN 200 uM) [nM],apparent KD of K4 kissing-loop reporter (input ligand: arginine 13.2 mM) [nM],apparent KD of K4 kissing-loop reporter (input ligand: none) [nM],apparent KD of K4 kissing-loop reporter [1] [nM],apparent KD of K4 kissing-loop reporter [2] [nM]
AGUAGGAAACUACAAUCCUCUCUUACUGAAGGAGCGCGUGAAAACGCAGGUAGGUCGCAGGAUUGGAGAGUGAUGUUCUCCUUAA [Ex Arginine A K4 17],311,331,441,413,320
AGUAUGGCAACAUUGCAAGUAGCCGUACCACGAGGACCGGUACGGCCGCCACUCGAUAACUUGCAGUGAUGUUGCAAGUAAGAAU [(T)''-(K)'-(T)'-(T1)-(T2)-(K1)-(K2)_Design4],193,206,227,268,199
AGUCUCAAAAGAGGCAGCACUCACGAGGACAAGGAUAUCAUCUCAAUGAGAAGGUGUCCUCGUCCCUAGUGAUGUUAGGGAGUGC [Omei KL FMN A SS E v6],205,265,305,682,437
AGUGAUAUAUGAGGAUAUGGGUUAAUUAGUGAGUUAUUUUUAGUGUUGUUUGAUUAGUGAUGUUAUUUAGAAGGCGUGAGUGAUG [awwswmjmullin],113,75,67.5,130,61.7
AGUGAUGUUGAGUUAUCUUAGUGAAGUGAUCGAGGACCGGUACGGCCGCCACUCGAGUGAUGAGUGAGUGAUGUUUGUUUAGGGA [llkmullin],695,780,897,765,413
AGUGAUGUUUCUUUUAAGAGUGAUGUUUUUCGAGGACCGGUACGGCCGCCACUCGAGUGAUGAGUGCGUCGUUGUGGUGAUUAGU [#13 K4 Tryptophan A Exclusion],483,281,463,379,229
AGUGGACAUGUCUAGAGUGAUGUUCUGGAUACCAGACACGAAAGUGUCCCUUGGCAGCCGGAGUGAUGUUCUGGAGUUCACUAAA [Omei KL Theo A Exc B v8],612,296,550,485,436
AGUGGACGUGUCCGGAGUGAUGUUCAGGAUACCAGACACGAAAGUGUCCCUUGGCAGCCGGAGUGAUGUUCCGGCGUUCACUAAA [Omei KL Theo A Exc B v4],459,248,360,419,321
AGUGUUAGGUUAGAUACCAGCCGUCCGUGGAUAACCCUCGGACCGCCAGUGAUGUUGGCAGGCCCUUGGCAGCUAACAGAACAGA [Beriisa],263,208,250,152,199
AGUUCCGACGGAAGGAGCGGACAGUAUUGACGGAAAGGUGCAAGUGAUGUUUGCGCUUGUGUCCAGGUAGGUCGCCGUCGGAACA [Arg B SS t13],91.3,82.4,84.7,79.3,89.4
AGUUCUUGCCGAAGGAGCGAGGCAGAGUGAUGUUCUGCAAGAGGUCGAAAGACCUCUCUGCCUCAGGUAGGUCGCGGCAUGAACA [Omei KL Arginine B Exc A v3],517,239,483,356,535
AUACGUUUUUGUGAUACCAGACAUGUGAGUGAUGUUUACAUAUAUAUUUAAUAUUUAGCUGUCCCUUGGCAGCACUGUUUAUUUA [JR_ExcTheophyB_Sub004],362,382,420,437,301
AUAGGAGUGAUGUUCCUUAGUUUCUCCGAUACCAGUAUGGAAACAUACCCUUGGCAGCGGGAAACCGCAGAUUAGGAAACUAGUC [Theophylline A K4 6],208,200,210,210,194
AUAUUAACUCAGUGAUGUUGAGUUGACGAAGGAGCGCUAGAGAUAGCAGGUAGGUCGCGUCAAUUUAAUGGAGACUAGCUUUACG [Arg A Ex t4],343,297,365,351,307
AUAUUUAUUUAGUCACUUUUCAUAUUAUGUCAGGAUAUCGUAUUUUCGAGAAGGGACUCAUGCUAGUGAUGUUAGCUAUUUCUCA [JR_Nu3_ExcFMNA_Sub022],104,170,141,162,111
AUCAGCCUCAGAAGGAGCGUGAGUUUUAAGAGGCUGGAGUGAUGUUCCAGACAUAACGACUCACAGGUAGGUCGCUGAGACUAGU [Arg B SS t1],132,99.8,121,98.5,114
AUCAUAUCUAGUCAGCCCAGUGAUGUUGGGCGAGGACCGGUACGGCCGCCACUCGCUUCGUUGCGGUGGCUGGCGUUACGACAAA [Inveusma],130,142,150,142,137
AUGACAGAAUCGGCCGCCACUCAUUGUCCUGUGGACAUUCUAGGAUUAGUGAUGUUUUUCCCAUCGAGGACCGGGAUACAGAUUG [theeternabot_sameState_KL_Trp_B_6],675,267,467,398,519
AUGCGCGCGGCGGCCGCCACUCGCAUGAGAGUGAUGUUCUCGCCGUGCCCGUAAGGGCGCGGUGUGAGGACCGGGCCGGGCUGCG [#2 Same State - Tryptophan B Attempt #21 (HarryS)],70.8,66.3,400,319,131
AUGGGUUUGGGAGGAUAUCCUUCCCACGUCGAAGUACCGUGCUUGAUGGAGUGAUGUUCGAUCAGAGGAGAAGGCCCGGAUUUAU [Same State FMN B GF21],754,612,845,806,536
AUGGUUGUCGUAGGAUAUGUAGGAUAUUCCUAUAGCAGUGAUGUUGCUAAUAUCAAUGGAAGAAGGACAGAAGGACGAUAACCAC [KL-SSFMN-B3 #analogue #DoubleAptamer],113,120,113,118,113
